Assay: soluble on expression in E. coli; label from the status in PepcDB or PDB records

| Sequence | soluble on expression in E. coli |
| --- | --- |
| MGSSHHHHHHSSGRENLYFQGHMKNLLDLSYEELVTEITNLGLERYRADQILDWVFDKKVNNFDEMTNLSKKHRALLKEHFSISFLKLLDKKVSRIDGTTKFLWELEDGNTIESVMLFHPDRITACISTQVGCPVKCIFCATGMSGFVRNLTTGEIVAQILSMEKEEKKKIGNVVYMGMGEPLLNYENTIKSIRILNHKKMGNIGIRRITISTVGIPDRIIQLAEEGLDVKLALSLHAPTNFKRDQLVPLNKKYSIEEILNAVKIYQRKTGNRVTIEYVLIRGINDEISDAKKLAEILRNMKVFVNLIPVNPTVEGLRRPSRERLLTFKRILLENGIEAEIRREKGTDIEAACGQLRLKRIKSRS | soluble |
| MSLCGIVAFYYPEINDKQAAIGKMMATIQHRGPSSDGMYTNDKVALGFRRLSIIDLRCGSQPIYNEDRSRAIIFNGEIYNFKPLREELIKAGHTFSTKADTEVILHGYEEWGMDGILKRVRGMFAFIIWDDNTQTMYGARDFFGIKPMYYQDVDGHLLVGSELKSFLAFPHFKKELNTEAVKPYLMNQYNDLKETFFKGVYRFQPGHWFEYKDGKMKTHQYWDAEYKDNNLSFEETVKKINEDLKETVDLYRNADVKVGAFLSEGVDSSFLTALLDPDEVFSIGFDDNTYDEASKAKALADINGWHFYADKVYSEEAMRDFPEMQYHMDEPDANPSIIPLWYLCKLARKHVTVALSGEGADELFAGYVNYGMHTHNNVIKVFTDKLKKLPKGKRVKLAHKIKKMPNFPGKVHLYTNLAEPSEFYVGQSVIYDMDYPTIFTSKDANAVLQPSYRNKLTVNGNYQEDFKKVKDLDNVKQMQYIDLHHFMLNDIEQKADKISMAHSLELRVPYLDVKIAKLANSIPSKYLVNKYDTKYALRKASEQVLPDEWAKRPKLGFPTPIKQWLQEERFYKQVRDLFSEDFVNDIFEQKKILDLLDENYNGDGSHRRQIWVIYTFLVWYKLFFVDYEEGHHHHHH | soluble |
| MGHHHHHHSHMSTKVPIYLKRGSRKGKKEKLRDLLSSDMISPPLGDFRHTIHIGSGGGSDMFGDISFLQGKFHLLPGTMVEGPEEDGTFDLPFQFTRTATVCGRELPDGPSPLLKNAISLPVIGGPQALTLPTAQAPPKPPRLHLETPQPSPQEGGSVDIWRIPETGSPNSGLTPESGAEEPFLSSASSLLSLHVDLGPSILDDVLQIMDQDLDSMQIPT | soluble |
| MATTKPYRVLLYYMYTTIENPEEFAAEHLEFCNSLELKGRILVAKEGINGTCSGTVEQTEKYMEAMNNDPRFDGIVFKIDEADGHAFKKMHVRPRPELVTLRLEDDINPHEITGKYLEPKDFYEAMKQEDTVIIDARNDYEFDLGHFKGAIKPDIESFRELPDWIRENKEVLEGKKILTYCTGGIRCEKFSGWLVREGYEDVSQLHGGIVTYGKDPEVQGELWDGQCYVFDERIAVPVNQKEHVIVGKDHFTGEPCERYVNCSNPECNKKILCSEENEAKYLRACSHECRVSPRNRYVIQHELTEEQVAAALEQIEAGKLEHHHHHH | soluble |
| MNRFLKHWRLSGRCEAFHGQIISYADDFVILSRGHAEDALTWTKAVMTKLGLTLNETKTSVKNARLESFDFLGYTLGPRHFRNGGRWYLGAAPSKKSVLRIKRKVSELLTPGNKGAWPEVQARLNRLLRGWSAYFSYGSLATAHQAVDRHVFDRVLAFLRRRHKTPGRGVRRFSDQIYGNPGVLVLNRVRKVSPTCALLEHHHHHH | not soluble |
| MALHVDYTAERAFARIIGGLRSARLDAGLSQNALAAGMPVRGRAISEWETRAVEPTLGHLIQWARELGRRLVIVGRDGELRVGPVRQRPGETFEIFERRRLAVPLRNRRLALGMAQGELGALVGVSRDSIQRWELVRVPPRPIAHVVWAQKLGCSLDILVVPDGARRVRRTGFAPAGLAGSTLERPGLRVQRLGL | not soluble |
| AEMKNLKIEVVRYNPEVDTAPHSAFYEVPYDATTSLLDALGYIKDNLAPDLSYRWSCRMAICGSCGMMVNNVPKLACKTFLRDYTDGMKVEALANFPIERDLVVDMTHFIESLEAIKPYIIGNSRTADQGTNIQTPAQMAKYHQFSGCINCGLCYAACPQFGLNPEFIGPAAITLAHRYNEDSRDHGKKERMAQLNSQNGVWSCTFVGYCSEVCPKHVDPAAAIQQGKVESSKDFLIATLKPR | soluble |
| MFGYRSNVPKVRLTTDRLVVRLVHDRDAWRLADYYAENRHFLKPWEPVRDESHCYPSGWQARLGMINEFHKQGSAFYFGLFDPDEKEIIGVANFSNVVRGSFHACYLGYSIGQKWQGKGLMFEALTAAIRYMQRTQHIHRIMANYMPHNKRSGDLLARLGFEKEGYAKDYLLIDGQWRDHVLTALTTPDWTPGR | not soluble |
| PPTGECRTVVFDFDGVLAEGFEGEVRPRPLGVALARRLIGRGYRVYIVSGRPEQERSLIARLLREWCIPLGGVRGIILRRRGVGEVDHKLESIMEVEAREGCVGEVHDDNPYVLEALRRRVETLVLHTPR | not soluble |
| MIVPPPEELTGARVLAYALIDESTPYSGRITLYVDGELIGPVPRLVIALNNYGPDDYLLLYCNENWDVIGAGGHASLVAAKESANIAYPGVASRWQDVA | not soluble |
| SSNAKADQASSDAQTANAKADQASNDANAARSDAQAAKDDAARANQRADNAA | soluble |
| KPAPSAEHSYAEGEGLVKVFDNAPAEFTIFAVDTKGVARTDGGDPFEVAINGPDGLVVDAKVTDNNDGTYGVVYDAPVEGNYNVNVTLRGNPIKNMPIDVKCIEGANGEDSSFGSFTFTVAAKNKKGEVKTYGGDKFEVSITGPAEEITLDAIDNQDGTYTAAYSLVGNGRFSTGVKLNGKHIEGSPFKQVLGNPGKKNPEVKSFTTTRTAN | soluble |
| MGVDKKQKQRKTNPFELKFNKSKHDILGRKKGAQVGAPTASRKRAHEQREQTLGVEYDRKNKISKIVDKRLGEKDGKSEEEKGAMRFTEERVKNYKRASKFNLTDDGDEEEEVLTHKGKALSDIEKYDKSMISDSDDDEEPGNLGSNMVKVAHFGGGEKTAEEHVREKISREDMISNLIAKTKLARHEKQQQKDELELMTESLDSKYQALMGKMKASFRPTGRQPLEKDDYDKLTITLKTEADARATPADRKLSEEEEALKEKERLETLEAAPDADVDIDAGSKADARKVQAKNSRFEVKFDDEGGLIDEDTVEKSRILKKNLDGSDESDDDEDLEDEEEDLDDLLEDEDELEEDSDDEEAQEAQKVVKKAKKSAPEPAETLPFVFEMPKNYKKFCALLEKHSESMDLVLERLVKCHHPSLKEGNKKRLNKLFLLCLRWFDDMSKEELTAESVKEMNLAQETMHALMKFDIQYGVRCVRALIRQHWKGRQDKQKSSPVSFGLISAIRLVSGLFPVADSWHPVVVPALFLATEALCSAKCANLNALAKQIQLANAIVEYVSESKRYVPELVAFARSALLLAVTEKSEKFATNGFPISKPHTEMLCFEEKYTGPALQPISLTTIFNNSPSDPSLKLHVLRALLSLIQHLRVIYSNQNETYSIVFKPFLRILESIQAKNLPAEVQEELETLCASMKAEIGAKCRLVHLSLVKTEKSMLKMLEPRFEWDFDPERPHHGPKDEKKKLTKNLRNERRGAIKELRKDTAFLARKQLSSVKTKDRARIAATKRVMGGLMQQQGEWNKEKRTADVEKKKDKK | soluble |
| MSLAKLTINDIAKKAKTSKTTVSFYLNGKFDKMSPDTKRRIEQVIEETNYSPNIMARSLKLKKSNLIGVVVADITNPFSSNIVKGIGEITRRKGYQILVGSTNLDYYNEEEYFKKMLDMGVDGFIVQPTKNFDKLYPAIKNKGKKIVVLDSVSSRYTGKWVKTNNYEIVYEAVLKLAEKGYEEFILVTEAPDKLAARMERKTGFEDAVNKINCKSFIEIINENTEVDEIAEMLKINISNNKKTVIFAINGKILQKVFKAVKMEGFDVPNHVGIIGFDKWDWTMYASPSVTTIDQPTYEEGKYAAKMLIEMIEENDDFYKSEVFDCNINWEESTDEGHHHHHH | soluble |
| MGSDKIHHHHHHMSDYLRGKRVVDPVLTSVARGYKNAAFVGESIFPIVQVEKEGIVVPLFGKGAFVEYDTERAVGAESNVLLREKSSSMDLVLNEHDLAAPVDYREQAESLFNEEAKAIRRATNGVNLKRELYAARLAQDPKVYLAASKKTLAAAERWANGKGEPVTVIEAGIEAVRNATGLRPNLLTMGASVMSVLRYHPAIQAQIGANERKRITAEILQDIFQINKVLIGEPVSSPDGKKAPIDVWADNLMLHYVSPPQPGTESADENEPSFGYTFRRKGMPVSDKYPGVGGKVSYARFTDIYKVAVVGGDAGYLITNILK | not soluble |
| MSLKPQVYHVDAFTSQPFRGNSAGVVFPADNLSEAQMQLIARELGHSETAFLLHSDDSDVRIRYFTPTVEVPICGHATVAAHYVRAKVLGLGNCTIWQTSLAGKHRVTIEKHNDDYRISLEQGTPGFEPPLEGETRAAIINALHLTEDDILPGLPIQVATTGHSKVMIPLKPEVDIDALSPDLNALTAISKKIGCNGFFPFQIRPGKNETDGRMFSPAIGIVEDPVTGNANGPMGAWLVHHNVLPHDGNVLRVKGHQGRALGRDGMIEVTVTIRDNQPEKVTISGTAVILFHAEWAIELEGGSHHHHHH | soluble |
| MGNNVVVLGTQWGDEGKGKIVDLLTERAKYVVRYQGGHNAGHTLVINGEKTVLHLIPSGILRENVTSIIGNGVVLSPAALMKEMKELEDRGIPVRERLLLSEACPLILDYHVALDNAREKARGAKAIGTTGRGIGPAYEDKVARRGLRVGDLFDKETFAEKLKEVMEYHNFQLVNYYKAEAVDYQKVLDDTMAVADILTSMVVDVSDLLDQARQRGDFVMFEGAQGTLLDIDHGTYPYVTSSNTTAGGVATGSGLGPRYVDYVLGILKAYSTRVGAGPFPTELFDETGEFLCKQGNEFGATTGRRRRTGWLDTVAVRRAVQLNSLSGFCLTKLDVLDGLKEVKLCVAYRMPDGREVTTTPLAADDWKGVEPIYETMPGWSESTFGVKDRSGLPQAALNYIKRIEELTGVPIDIISTGPDRTETMILRDPFDA | soluble |
| MTYDSEFGSHVSLYRDRIKQVIDDSLNEHLNSMILRVDLHDPIDTENMDNPFFQPRVDSGAISRFTSALKAKLKHDKHIKTQRKDWPDSRHSTLRYAWVREYTKNRKRHYHLILCFNQDAYYHLGDYDLNRNTLRTMITTAWYSALGIPIDSSGKLVNYPPNGKYLLNRKRDNFEQTYSDLMNRVDYMTKVRTKIVGDGDRNFGCSRG | soluble |
| MGSDKIHHHHHHMISTANITMQFGSKPLFENVSVKFNNGNRYGLIGANGCGKSTFMKILGGDLEPSAGQVMLEPNTRLGKLRQDQFAYEEFTVIDTVIMGHGQLWKVKAERDRIYSLPEMTEEDGMAVAELETEFAEMDGYTAESRAGELLLGLGIPLEQHFGPMSEVAPGWKLRVLLAQALFSDPDVLLLDEPTNHLDINTIRWLETILTARNSTMIIISHDRHFLNSVCTHMADLDYGELRLFPGNYDEYMTAATQSREQLLSDNAKKKAQIAELQTFVSRFSANASKAKQATSRAKQIDKIQLAEVKPSSRVSPFIRFEQAKKLHRQAVVVEKMAKAFDDKVLFKNFDITVEAGERVAIIGPNGIGKTTLLRTLVGEMTPDAGSVKWTDSAEVGYYAQDHAHDFEDDMTLFDWMGQWTSGEQVIRGTLGRMLFSNDEILKSVKVISGGEQGRMLFGKLILQKPNVLVMDEPTNHLDMESIEALNLALENYPGTLLFVSHDREFVSSLATRIIELSADGVVDFSGTYDDYLRSQGVLV | not soluble |
| SLIENSHVKKDDIWPSGGQMTVKDLTAKYTEGGNAILENISFSISPGQRVGLLGRTGSGKSTLLSAFLRLLNTEGEIQIDGVSWDSITLEQWRKAFGVIPQKVFIFSGTFRKNLDPYEQWSDQEIWKVADEVGLRSVIEQFPGKLDFVLVDGGCVLSHGHKQLMCLARSVLSKAKILLLDEPSAHLDPVTYQIIRRTLKQAFADCTVILCEARIEAMLECDQFLVIEENKVRQYDSILELYHYPADRFVAGFIGSPKMNFLPVKVTATAIDQVQVELPMPNRQQVWLPVESRDVQVGANMSLGIRPEHLLPSDIADVILEGEVQVVEQLGNETQIHIQIPSIRQNLVYRQNRVVLVEEGATFAIGLPPERCHLFREDGTACRRLHKEPGV | soluble |
